Laboratory results from patent US12611470B2, “Chromatin-opening element for stable long term gene expression” (CZ Biohub SF, LLC, priority 2019, dated 2026).

B1: Candidate 6-1: Truncated SRF-UCOE variant having a 106 base pair 5′ end deletion, SEQ ID NO:2 (nucleic acid)
DNA: TTCAAAGTGCAGGGCAGACAGCAGGTGGCTCTGCCCAGGCGCCTGGATCACAGCCCGGCCTGCAGCCCTCACCTGGGCGCGGGGAGACCCTGAGGACGCTCCTCCAGGCGGCGCTGGCCGGGGCCTGCGGACACGGACGGGCGGGCTGAGCTCCGGGACCCCTCCCCGCGCCCCGCACCCCGCACCCCGCACCCCGCACCCCGCACCCGGCGCTCACCCGTCCCAGCCCCGCCGCCCGCAGCCCCAGCTGCAACGCAGCCACCGCCGCCATCGCACCCGGCCCCGCGGGCGCTTCCGGGACGCAGGAGGCATCTGCATCCGGGGCGCCGCTGAGTCCCGCCCAGAGCCCCGCCCCCGGCTCCAGGTTCTGCGAGCGGCTTCCGCCGGGCTGCTCCGCGGGCGCGTCGGCCATGAGCGAGTTGCCGGGCGACGTGCGGGCGTTTCTGCGGGAGCACCCGAGCCTGCGGCTCCAGACGGACGCCCGCAAGGTTCGCAGCGCGGGAGGGGAACGGAGTGGCGGAGAAGGGCGCAGTTGGGATGAGGGGCTGAGGGGAGGGCAGGGGAGAGGAGAGGGCAGGGGAGAGGGGAGAGGGGAGAGCAGGAGAGAGGGGAAGGCAGGGGAGAGGGCGCGGCGGGATCAGGGGAGGAGAGGGAAGGGGGCGCGGCAGGAGGGGGCACCAGGGAGCGGAGCCCTGGCCCTCCTGACGTCCTGCCCGCCCACGCGTCCGCAGGTGAGGTGCATCCTGACAGGTCACGAGCTGCCCTGCCGCCTGCCGGAGCTCCAGGTCTACACCCGCGGCAAAAAGTACCAGCGGCTGGTCCGCGCCTCCCCGGCCTTCGACTATGCAGAGTTCGAGCCGCACATCGTGCCCAGCACCAAGAACCCGTAGGTGGTC
B2: Candidate 6-2: Truncated SRF-UCOE variant having a 478 base pair 5′ end deletion, SEQ ID NO:3 (nucleic acid)
DNA: AGCGGCTTCCGCCGGGCTGCTCCGCGGGCGCGTCGGCCATGAGCGAGTTGCCGGGCGACGTGCGGGCGTTTCTGCGGGAGCACCCGAGCCTGCGGCTCCAGACGGACGCCCGCAAGGTTCGCAGCGCGGGAGGGGAACGGAGTGGCGGAGAAGGGCGCAGTTGGGATGAGGGGCTGAGGGGAGGGCAGGGGAGAGGAGAGGGCAGGGGAGAGGGGAGAGGGGAGAGCAGGAGAGAGGGGAAGGCAGGGGAGAGGGCGCGGCGGGATCAGGGGAGGAGAGGGAAGGGGGCGCGGCAGGAGGGGGCACCAGGGAGCGGAGCCCTGGCCCTCCTGACGTCCTGCCCGCCCACGCGTCCGCAGGTGAGGTGCATCCTGACAGGTCACGAGCTGCCCTGCCGCCTGCCGGAGCTCCAGGTCTACACCCGCGGCAAAAAGTACCAGCGGCTGGTCCGCGCCTCCCCGGCCTTCGACTATGCAGAGTTCGAGCCGCACATCGTGCCCAGCACCAAGAACCCGTAGGTGGTC
B3: Candidate 6-3: Truncated SRF-UCOE variant having a 241 base pair 3′ end deletion, SEQ ID NO:4 (nucleic acid)
DNA: GCACACGACCACAATTCCACTGAAAGCATTTTAATACGGAACTTGTCACTCCCAGGGAGCCTCCGCTCAGCCGGCAGTTGGTTCATTTCAATCCCCACGACAACCCTTCAAAGTGCAGGGCAGACAGCAGGTGGCTCTGCCCAGGCGCCTGGATCACAGCCCGGCCTGCAGCCCTCACCTGGGCGCGGGGAGACCCTGAGGACGCTCCTCCAGGCGGCGCTGGCCGGGGCCTGCGGACACGGACGGGCGGGCTGAGCTCCGGGACCCCTCCCCGCGCCCCGCACCCCGCACCCCGCACCCCGCACCCCGCACCCGGCGCTCACCCGTCCCAGCCCCGCCGCCCGCAGCCCCAGCTGCAACGCAGCCACCGCCGCCATCGCACCCGGCCCCGCGGGCGCTTCCGGGACGCAGGAGGCATCTGCATCCGGGGCGCCGCTGAGTCCCGCCCAGAGCCCCGCCCCCGGCTCCAGGTTCTGCGAGCGGCTTCCGCCGGGCTGCTCCGCGGGCGCGTCGGCCATGAGCGAGTTGCCGGGCGACGTGCGGGCGTTTCTGCGGGAGCACCCGAGCCTGCGGCTCCAGACGGACGCCCGCAAGGTTCGCAGCGCGGGAGGGGAACGGAGTGGCGGAGAAGGGCGCAGTTGGGATGAGGGGCTGAGGGGAGGGCAGGGGAGAGGAGAGGGCAGGGGAGAGGGGAGAGGGGAGAGCAGGAGAGAGGGGAAGGCAGGGGAGAGGGCGCGGCGGGATCAGGGGAGGAGAGGGAA

Test system: P19 cells
Assay: Lentiviral transduction silencing experiment, UCOE linked to CMV, EF1α, RSV or PGK promoter driving GFP
Assay type: cell-based, mouse
Conditions: for GFP positive cells / expression compared to the negative control: final timepoint; for anti-silencing performance across all four tested promoters: CMV, EF1α, RSV, PGK promoters
Source text: The graphs show the raw data of measured percent GFP positive cells (% GFP+) for each construct over time. Transduced populations were sorted into triplicate wells using FACS at day 0 (5 days after lentiviral transductions) to begin the study at 100% GFP positive cells. Expression is lost quickly within the first 10 days, and then stabilizes around day 15. Data is reported as mean±SD from biological triplicates. Two positive UCOE controls (A2UCOE, 3′UCOE) and a negative control (no insulator region) were used.
Percent GFP positive cells at the final timepoint (day 26 for CMV and RSV, day 27 for PGK and EF1α) of the lentivirus silencing experiment across the four tested promoters is plotted. P19 cells were FACS-sorted five days after transduction (day 0) and then assayed over a 26 or 27-day time period thereafter. Data is reported as mean±SD from three biological replicates.
Two plasmids (pCS3800: encoding HIV-1 Gag; pCS380: encoding VSVg envelope protein) were used with varying versions of the donor plasmid pCS3799. HEK293T cells were plated at 5×10^6 cells in a 10 cm dish. Twenty-four hours after plating, the three plasmids (10 μg donor, 8 μg pCS3800, 10 μg pCS3801) were co-transfected together using a calcium phosphate protocol (Zufferey, R. T. and Trono, D. (2001) Current Protocols in Human Genetics, 26 (1), 12.10.1-12.10.12; DOI: 10.1002/0471142905.hg1210s26 (55)). The total DNA was brought to 500 μL in water, to which 500 μL of 2×HEPES-buffered saline, pH7.0 (Alfa Aesar) was added and mixed. One-tenth of the total volume (100 μL) of 2.5 M calcium chloride (Sigma-Aldrich) was then added to the mixture, followed by a 20-minute incubation. The mixture was then added to the plate in a dropwise manner. Media was replaced six hours later, and the supernatant was collected at 48 hr after the transfection, filtered through 0.4 μm filter, and frozen at −80° C. in 1 mL aliquots. Lentiviral aliquots were thawed in a 37° C. bead bath before transductions.
P19 cells were plated at 20-30,000 cells/well in 12-well plates one day before transduction. Twenty-four hours after plating, cells were transduced at varying dilutions of the lentiviral stock (ranging from 1:2 to 1:100) in DMEM+10% FBS with 8 μg/mL polybrene (Santa Cruz Biotechnologies). Media was refreshed on P19 cells 24 hours after transduction, and cells were passaged and assayed through a MACSQuant® VYB flow cytometer (Miltenyi Biotec) 48 h after transduction. MOI was determined by reporter expression at this timepoint using the following formula: MOI=ln (1/1-p) where p is the % of cells that are GFP positive at 48 hours post-transduction (Chen, S. et al. (2015) Cell, 160, 1246-1260 (56)).
Cells were FACS-sorted on the BD Influx™ cell sorter at the Stanford FACS Facility using the 488-nm laser and 525/40 filter to assay GFP expression. After gating for singlets and viability, GFP+ gate was drawn to be <0.1% GFP positive in non-transduced P19 cells. GFP+ gates were re-drawn for each promoter set to avoid the ˜10% highest and lowest expressing cells within the GFP+ gate, but the same gate was used for every experimental condition under the same promoter. Triplicate wells of each population (12-15,000 cells/well in a 24-well plate) were collected.
Fluorescence data throughout silencing experiments was obtained using a MACSQuant® VYB flow cytometer (Miltenyi Biotec). EGFP was measured through the 488-nm laser and 525/50 nm band pass filter. Flow cytometry data was analyzed using the FlowJo™ single cell flow cytometry analysis software (Tree Star). After being gated for singlets and viability, GFP+ gates in FlowJo were drawn such that a non-transfected or non-transduced P19 cell population was at 1% GFP+. Median values reported are of cells within the GFP+ gate, both % GFP positive and median are reported with the standard deviation of biological replicates. […]

[1] = Ef1α promoter, day 27 after FACS sort to 100% GFP+

| Molecule | % GFP+ cells at final timepoint (CMV promoter, day 26) [%] | improvement over the negative control (CMV promoter, day 26) [fold] | GFP positive cells / expression compared to the negative control (Ef1α promoter) | % GFP+ cells at final timepoint (PGK promoter, day 27) [%] | expressing cells / improvement over the negative control (PGK promoter, day 27) [fold] | % GFP+ cells at final timepoint (RSV promoter, day 26) [%] | efficacy in resisting silencing (CMV promoter) | % GFP+ cells, representative example (one biological replicate) (CMV promoter, day 26) [%] | improvement over A2UCOE (CMV promoter, day 26) [fold] | anti-silencing performance across all four tested promoters | efficacy in resisting silencing (Ef1α promoter) | % GFP+ cells at final timepoint [1] | efficacy in resisting silencing (PGK promoter) | efficacy in resisting silencing (RSV promoter) | % GFP+ cells, representative example (one biological replicate) (EF1a promoter, day 27) [%] | % GFP+ cells, representative example (one biological replicate) (PGK promoter, day 27) [%] |
| --- | --- | --- | --- | --- | --- | --- | --- | --- | --- | --- | --- | --- | --- | --- | --- | --- |
| B1 | 39 | 3 | 3.6 times | 31 | 5 | 68 |  |  |  |  |  |  |  |  |  |  |
| B2 | 55 | 4.4 |  | 17 |  |  | best-performing population | 59.2 | 1.4 | failed to outperform the negative control in 3 of the 4 promoters tested | ineffective | 11% | substantially less effective than the other Candidate 6 sequences | ineffective |  |  |
| B3 | 39 | 3 | more than four times | 49 |  | 66 |  |  |  | most consistent activity |  | greater than 65% |  |  | 69 | 47.8 |
